From patent US20240384250A1, “FIBROBLAST GROWTH FACTOR 23 MODULATING COMPOUNDS” (THE UAB RESEARCH FOUNDATION, priority 2021, published 2024)

Legend:
FGF23 = target: T1, FGF23 (Homo sapiens, UniProt Q9GZV9); assay: Plate-based binding assay, FGF23 coated, FLAG-sKL detected with anti-FLAG HRP; details: for binding of FLAG-sKL to coated FGF23 (absorbance at 450 nm): 10 ng FGF coated, 40 ng FLAG-sKL; for binding of FLAG-sKL to coated FGF23 compared with FGFR1c: 20 ng FGF23 coated, 80 ng FLAG-sKL
T1 construct: purchased R&D Systems 2604FG025/CF (human) or 2629FG025/CF (mouse)
T1 sequence (Q9GZV9 25-251): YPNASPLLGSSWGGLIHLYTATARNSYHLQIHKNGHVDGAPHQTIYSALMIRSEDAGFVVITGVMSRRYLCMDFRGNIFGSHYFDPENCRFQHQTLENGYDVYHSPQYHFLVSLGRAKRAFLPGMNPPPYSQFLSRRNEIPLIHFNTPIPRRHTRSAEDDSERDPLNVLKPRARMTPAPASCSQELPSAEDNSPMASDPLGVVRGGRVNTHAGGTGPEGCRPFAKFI
Method: Proteins were coated on 96-well plates (MaxiSorp; 439454, Thermo Fisher Scientific), and proteins were added to wells in 100 μl of enzyme-linked immunosorbent assay (ELISA) coating buffer (E107, Bethyl Laboratories) with a lid placed overtop and incubated at 4° C. overnight. Plates were washed 5× with 350 μl of assay buffer (50 mM Tris [pH 7.4], 200 mM NaCl, 0.01% Tween 20) on a 50 TS microplate washer (BioTek). Plates were blocked for 1 hour in 200 μl of assay buffer with 0.5% BSA. Plates were washed as before, and proteins were incubated on plates in 100 μl of assay buffer with 0.5% BSA. Proteins or heparin was incubated in orders described in the respective figure legends. Assays using FLAG-tag-based detection were incubated with anti-FLAG coupled to HRP at 1:20,000, and assays using Fc detection were incubated with anti-human Fc coupled to HRP at 1:10,000. Plates were washed as above, and 100 μl of 3,3′,5,5′-tetramethylbenzidine (TMB) substrate (E102, Bethyl Laboratories) was added for 15 to 20 minutes until positive wells developed a dark blue color. Reactions were stopped with ELISA stop solution (E115, Bethyl Laboratories) and analyzed using the Synergy HI plate reader (BioTek) at 450 nm wavelength. […] As a control to remove background absorbance values, wells were coated with an equal amount of BSA to match the amount of protein coated in experimental wells and treated the same as experimental wells. To study the effects of sKL on the binding between paracrine FGFs and FGFRs, plates were run as above except coated with paracrine FGFs. Fc-FGFR1 was preincubated with sKL or vehicle for 60 minutes, and then the combination was added to wells and the assay was run as before.

FGF23/FGFR4 binding = target: T2, FGF23/FGFR4 binding (Homo sapiens, UniProt P22455+Q9GZV9, R179Q); assay: Surface plasmon resonance, FGF23 binding to surface FGFR4 with heparin or sKL in solution
T2 construct: Fc-FGFR4 protein (human ectodomain) was immobilized; purchased R&D Systems human FGF23 2604FG025/CF; human FGFR4 685FR050
T2 sequence (Q9GZV9 25-251 R179Q): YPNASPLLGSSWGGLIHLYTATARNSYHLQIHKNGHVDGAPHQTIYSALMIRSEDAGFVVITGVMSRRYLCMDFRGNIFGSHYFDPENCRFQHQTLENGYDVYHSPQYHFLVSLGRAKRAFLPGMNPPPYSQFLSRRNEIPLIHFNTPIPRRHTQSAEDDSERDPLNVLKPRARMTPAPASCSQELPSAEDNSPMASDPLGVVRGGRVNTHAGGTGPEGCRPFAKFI
T2 sequence (P22455 22-369 limits assumed): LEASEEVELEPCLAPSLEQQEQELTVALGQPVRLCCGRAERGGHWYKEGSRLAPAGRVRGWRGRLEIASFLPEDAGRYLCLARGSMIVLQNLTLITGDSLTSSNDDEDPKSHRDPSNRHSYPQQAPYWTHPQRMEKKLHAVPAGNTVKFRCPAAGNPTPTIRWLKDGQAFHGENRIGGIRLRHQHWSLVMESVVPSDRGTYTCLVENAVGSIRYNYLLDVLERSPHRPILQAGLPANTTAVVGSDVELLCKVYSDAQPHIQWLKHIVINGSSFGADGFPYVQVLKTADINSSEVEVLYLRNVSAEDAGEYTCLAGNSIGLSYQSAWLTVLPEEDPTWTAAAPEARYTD
Method: For the direct quantitative analysis of label-free molecular interactions in real time, surface plasmon resonance studies were conducted using BIAcore T200 and T200 evaluation software (28975001, Cytiva). Sensor SA (BR100398) and CMS chips (BR100399) were from Cytiva. For the preparation of heparin chips, heparin (2 mg) and amine-PEG3-Biotin (2 mg, 21347, Pierce) were dissolved in 200 μl of H2O and 10 mg of NaCNBH3 was added. The reaction mixture was heated at 70° C. for 24 hours; an additional 10 mg of NaCNBH3 was added; and the reaction was heated at 70° C. for another 24 hours. After cooling to room temperature, the mixture was desalted with the spin column (3000 MWCO). Biotinylated heparin was collected, freeze dried, and used for chip preparation. Biotinylated heparin was immobilized to streptavidin chips according to the manufacturer's protocol. In brief, 20 μl of biotinylated heparin solution (0.1 mg/ml) in HBS-P running buffer (0.01 M N-2-hydroxyethylpiperazine-N′-2-ethanesulfonic acid, 0.15 M NaCl, 0.005% surfactant P20 [pH7.4]; BR100368, Cytiva) was injected over flow cell 2 of the streptavidin chip at a flow rate of 10 μl/min. The successful immobilization of heparin was confirmed by the observation of an approximately 200-resonance unit increase in the sensor chip. […] The response was monitored as a function of time (sensorgram) at 25° C.

B1: sKL: recombinant soluble α-klotho ectodomain, mouse aa 35-982 and human aa 34-981, FLAG- or Strep/His-tagged, purified from HEK293 cells (protein)
chain: EPGDGAQTWARFSRPPAPEAAGLFQGTFPDGFLWAVGSAAYQTEGGWQQHGKGASIWDTFTHHPLAPPGDSRNASLPLGAPSPLQPATGDVASDSYNNVFRDTEALRELGVTHYRFSISWARVLPNGSAGVPNREGLRYYRRLLERLRELGVQPVVTLYHWDLPQRLQDAYGGWANRALADHFRDYAELCFRHFGGQVKYWITIDNPYVVAWHGYATGRLAPGIRGSPRLGYLVAHNLLLAHAKVWHLYNTSFRPTQGGQVSIALSSHWINPRRMTDHSIKECQKSLDFVLGWFAKPVFIDGDYPESMKNNLSSILPDFTESEKKFIKGTADFFALCFGPTLSFQLLDPHMKFRQLESPNLRQLLSWIDLEFNHPQIFIVENGWFVSGTTKRDDAKYMYYLKKFIMETLKAIKLDGVDVIGYTAWSLMDGFEWHRGYSIRRGLFYVDFLSQDKMLLPKSSALFYQKLIEKNGFPPLPENQPLEGTFPCDFAWGVVDNYIQVDTTLSQFTDLNVYLWDVHHSKRLIKVDGVVTKKRKSYCVDFAAIQPQIALLQEMHVTHFRFSLDWALILPLGNQSQVNHTILQYYRCMASELVRVNITPVVALWQPMAPNQGLPRLLARQGAWENPYTALAFAEYARLCFQELGHHVKLWITMNEPYTRNMTYSAGHNLLKAHALAWHVYNEKFRHAQNGKISIALQADWIEPACPFSQKDKEVAERVLEFDIGWLAEPIFGSGDYPWVMRDWLNQRNNFLLPYFTEDEKKLIQGTFDFLALSHYTTILVDSEKEDPIKYNDYLEVQEMTDITWLNSPSQVAVVPWGLRKVLNWLKFKYGDLPMYIISNGIDDGLHAEDDQLRVYYMQNYINEALKAHILDGINLCGYFAYSFNDRTAPRFGLYRYAADQFEPKASMKHYRKIIDSNGFPGPETLERFCPEEFTVCTECSFFHTRKS
modifications: left off: small tags and cut ends
notes: recombinant soluble α-klotho ectodomain, mouse aa 35-982 and human aa 34-981, FLAG- or Strep/His-tagged, purified from HEK293 cells
In the case of B1, the “binding of FLAG-sKL to coated FGF23 (absorbance at 450 nm)” value (FGF23) is reported as “bound FGF23”, the “binding of FLAG-sKL to coated FGF23 (absorbance at 450 nm)” value (FGF23; listed as FLAG-sKL) is reported as “only FGF23 bound FLAG-sKL” and the “binding of FLAG-sKL to coated FGF23 compared with FGFR1c” value (FGF23) is reported as “to a lesser extent”. The “binding of FLAG-sKL to coated FGF23 compared with FGFR1c” value (FGF23; listed as FLAG-sKL) was “to a lower extent”, the “FGF23 binding affinity, protein from HEK293 lysates instead of supernatants” value (FGF23; 100 ng FGF23 coated, normalized to sKL amounts) was “higher” and the “sKL's effect on increasing FGFR4 affinity for FGF23 relative to heparin” value (FGF23/FGFR4 binding) was 4- to 5 fold. The “increase in FGF23/FGFR4 binding affinity” value (FGF23/FGFR4 binding; heparin or sKL in solution) was “approximately 13 fold”.
